The values below come from patent US20020106374A1.

The target of this assay is HIV-1JR-FL envelope glycoproteins gp120/gp41 (HIV-1 JR-FL). Put plainly: cell-based or functional assay.

Regarding “CD4-IgG2 (from UniProt P01730 26-203; P01730 26-203) (Fc fusion)”, the IC90, inhibition of HIV-1JR-FL Env-mediated cell-cell fusion (RET assay) stood at 11 nM; the IC90, inhibition of HIV-1JR-FL virus-cell fusion (luciferase reporter virus, HeLa-CD4+CCR5+ cells) is 12 nM; the K (equal to IC50), inhibition of env-mediated membrane fusion (RET) between HeLa-EnvJR-FL and PM1 cells turned out to be 0.31 µg/mL; the activity in the RET assay after co-incubation of HeLa-Env cells, PM1 cells and inhibitor for 2 h at 25° C., washing and warming to 37° C. amounted to 12 fold lower. This substance returned a potency in the washout RET assay (drug pre-incubated with HeLa-Env cells, washed, then PM1 cells added) against the standard assay of 6 fold lower.

On to T-20 (peptide), for which the IC90, inhibition of HIV-1JR-FL Env-mediated cell-cell fusion (RET assay) was determined as 22 nM; the IC90, inhibition of HIV-1JR-FL virus-cell fusion (luciferase reporter virus, HeLa-CD4+CCR5+ cells) amounted to 45 nM; the K (equal to IC50), inhibition of env-mediated membrane fusion (RET) between HeLa-EnvJR-FL and PM1 cells amounted to 0.017 µg/mL; the increase in IC50 in the RET assay after co-incubation of HeLa-Env cells, PM1 cells and inhibitor for 2 h at 25° C., washing and warming to 37° C. (fold increase in IC50) is above 250.
